Experiments:
[1] = target: recombinant LH/CG receptor (UniProt P22888)
[2] = target: recombinant LH/CG receptor (UniProt P22888); remark: listed apart in the source

Sequence of UniProt P22888 (P22888 27-699): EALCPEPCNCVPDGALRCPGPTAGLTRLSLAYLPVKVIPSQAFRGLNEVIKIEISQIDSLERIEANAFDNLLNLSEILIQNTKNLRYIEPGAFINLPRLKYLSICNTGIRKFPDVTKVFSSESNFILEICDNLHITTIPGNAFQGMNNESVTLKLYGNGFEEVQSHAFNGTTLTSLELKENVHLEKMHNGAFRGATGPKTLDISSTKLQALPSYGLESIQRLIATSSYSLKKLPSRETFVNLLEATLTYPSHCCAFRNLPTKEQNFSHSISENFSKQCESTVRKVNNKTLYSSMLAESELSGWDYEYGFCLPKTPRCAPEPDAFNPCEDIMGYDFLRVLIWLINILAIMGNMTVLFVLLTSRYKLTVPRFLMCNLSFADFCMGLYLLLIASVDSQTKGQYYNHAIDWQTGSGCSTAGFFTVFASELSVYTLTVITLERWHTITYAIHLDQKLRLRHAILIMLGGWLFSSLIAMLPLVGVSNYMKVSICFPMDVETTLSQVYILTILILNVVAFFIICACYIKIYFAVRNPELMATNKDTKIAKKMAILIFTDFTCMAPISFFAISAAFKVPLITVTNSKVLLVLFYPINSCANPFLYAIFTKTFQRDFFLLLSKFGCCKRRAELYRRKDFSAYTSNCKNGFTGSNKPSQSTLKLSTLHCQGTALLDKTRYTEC

Substance: human recombinant chorionic gonadotropin (hCG, Ovitrelle) (from UniProt P01215 25-116; P0DN86 21-165) (ligand)
- change of FRET signal of the cAMP biosensor TEpacVV in living COS7-LHCGR cells, serial concentrations of hCG over time; concentration giving full receptor activation [1]: 50 pM
- cAMP biosensor signal in COS7-LHCGR cells with 30 pM hCG after heat treatment of the hormone at 65 °C for 30 min; loss in active hormone concentration [2]: 40%

Reference: paper PMC5299843
